# Assay results: FireProtDB (doi:10.1021/bi982078m)
# Several values for one entry are separate records, joined by “and”; a condition that tells them apart may be missing. Equal entries are not always repeated.
# Settings: Equus caballus, pH 6, 25 °C, Absorbance, cacodylate 0.03 M, reversible: yes
# Sequence of Cytochrome c wild type, P00004 (P00004 whole entry): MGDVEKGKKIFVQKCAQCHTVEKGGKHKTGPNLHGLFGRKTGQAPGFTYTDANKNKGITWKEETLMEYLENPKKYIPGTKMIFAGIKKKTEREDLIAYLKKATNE
substance,measurement,setting,value
"Cytochrome c wild type, P00004",denaturant m value,"GdnHCl, KCl 0.1-1.0 M",3.31 kcal/mol/M
same,denaturant midpoint (higher = more stable),"GdnHCl, KCl 0.1-1.0 M",2.47 M
same,unfolding free energy,"GdnHCl, KCl 0.1-1.0 M",8.18 kcal/mol
same,denaturant m value,"Urea, KCl 0.1-1.0 M",1.28 kcal/mol/M
same,denaturant midpoint (higher = more stable),"Urea, KCl 0.1-1.0 M",6.26 M
same,unfolding free energy,"Urea, KCl 0.1-1.0 M",8.02 kcal/mol
same,denaturant m value,"Urea, KCl 0.1 M",1.25 kcal/mol/M and 1.37 kcal/mol/M
